Where a chain is given by its changes, count along the chain named.
Columns and labels:
[1] = target: T1, human CD3 on T cells (Jurkat cells; human peripheral blood CD4+ and CD8+ T-cells) (human, UniProt P07766 23-207); test: flow cytometry on Jurkat cells
T1 construct: whole, on cells; also called CD4T; CD4 + T
Experimental: Jurkat cells in logarithmic growth phase were blocked with 3% BSA for 30 min, added to 96-well U-plate at 5×10^4 cells per well, centrifuged to discard the supernatant, and added with 50 μL of gradient diluted antibody (antibody concentration:from 30 μg/mL, with 3-fold dilution for 5 gradients) per well, and incubated at 4° C. for 1 hour. After washing off the primary antibody, a 1:300 dilution of Alexa Fluro647 labeled goat anti-human IgG Fc (Jackson ImmunoResearch, 109-606-170) was added to the secondary antibody, incubated for 45 min at 4° C., and, after washing, resuspended in 50 μL of PBS per well for FACS (iQue, intellicyt) detection.

[2] = target: T2, Cynomolgus monkey CD3εγ-Fc heterodimer (cynomolgus monkey); test: ELISA, coated cynomolgus monkey CD3εγ protein
T2 construct: also called cynomolgus monkey CD3εγ protein
T2 chain 1: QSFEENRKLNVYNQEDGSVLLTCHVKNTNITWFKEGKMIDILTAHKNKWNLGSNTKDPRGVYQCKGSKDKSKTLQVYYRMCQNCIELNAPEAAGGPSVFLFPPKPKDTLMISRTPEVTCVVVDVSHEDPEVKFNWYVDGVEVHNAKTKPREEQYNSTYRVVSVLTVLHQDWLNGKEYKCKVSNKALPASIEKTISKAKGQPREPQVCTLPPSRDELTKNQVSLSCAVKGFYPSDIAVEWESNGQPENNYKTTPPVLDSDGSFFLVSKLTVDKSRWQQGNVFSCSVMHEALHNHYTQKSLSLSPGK
T2 chain 2: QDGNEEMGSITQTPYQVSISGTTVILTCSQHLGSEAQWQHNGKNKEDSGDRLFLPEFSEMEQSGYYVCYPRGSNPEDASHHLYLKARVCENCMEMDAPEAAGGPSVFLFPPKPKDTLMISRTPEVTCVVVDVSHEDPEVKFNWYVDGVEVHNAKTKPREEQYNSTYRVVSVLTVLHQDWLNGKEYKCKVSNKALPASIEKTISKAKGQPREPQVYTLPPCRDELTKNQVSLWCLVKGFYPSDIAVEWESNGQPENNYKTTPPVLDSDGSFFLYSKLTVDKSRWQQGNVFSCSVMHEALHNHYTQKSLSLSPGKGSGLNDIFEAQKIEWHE
Experimental: (§1) Human CD3εγ protein and cynomolgus monkey CD3εγ protein were coated separately overnight at 4° C. After blocking with 2% skim milk, different dilutions of CD3 antibody were added to each well and incubated for 1 hour. After the secondary antibody was developed by adding HPR-labeled goat anti-human IgG Fc and TMB solution, the reaction was stopped with concentrated sulfuric acid, and the absorbance was read at 450 nm.

[3] = target: T3, human CD3εγ-Fc heterodimer (human); test: ELISA, coated human CD3εγ recombinant protein
T3 construct: also called human CD3εγ recombinant protein; human CD3εγ protein
T3 chain 1: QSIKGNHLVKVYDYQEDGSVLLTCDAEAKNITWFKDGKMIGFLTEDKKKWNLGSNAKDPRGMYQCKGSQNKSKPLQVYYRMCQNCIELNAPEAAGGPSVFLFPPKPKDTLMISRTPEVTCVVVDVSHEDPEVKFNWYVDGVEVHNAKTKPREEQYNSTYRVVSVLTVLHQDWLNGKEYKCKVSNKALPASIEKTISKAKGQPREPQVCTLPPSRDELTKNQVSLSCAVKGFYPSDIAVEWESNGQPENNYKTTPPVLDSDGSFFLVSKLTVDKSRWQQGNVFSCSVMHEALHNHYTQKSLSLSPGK
T3 chain 2: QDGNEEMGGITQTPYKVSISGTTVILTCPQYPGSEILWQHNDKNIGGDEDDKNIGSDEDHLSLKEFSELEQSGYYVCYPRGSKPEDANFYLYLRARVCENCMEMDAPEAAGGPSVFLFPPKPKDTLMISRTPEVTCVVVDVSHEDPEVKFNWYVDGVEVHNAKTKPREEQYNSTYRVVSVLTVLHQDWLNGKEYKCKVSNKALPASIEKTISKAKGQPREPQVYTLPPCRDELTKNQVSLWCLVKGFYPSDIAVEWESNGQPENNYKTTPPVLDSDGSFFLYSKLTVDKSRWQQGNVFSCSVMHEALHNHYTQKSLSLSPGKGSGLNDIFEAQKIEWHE
Experimental: as §1, with “CD3εγ recombinant” for “CD3εγ”, “was” for “and cynomolgus monkey CD3εγ protein were”, “coated” for “coated separately”, “acid” for “acid,”

[4] = target: T4, human GPC3 on cells (CHO-human GPC3 stably transfected cells; HepG2 tumor cells) (human, UniProt P51654 25-554); test: flow cytometry on HepG2 cells
T4 construct: whole, on cells; also called Human GPC3-CHO
Experimental: (§2) CHO-human GPC3, CHO-Cynomolgus monkey GPC3 stably transfected cells or human hepatocellular carcinoma HepG2 tumor cells in logarithmic growth phase were taken. After blocking, the cells were adjusted to 5×10⁵ cells/ml, and 100 μl/well cell suspension was added to 96-well U-shaped plate and centrifuged at 300 g for 5 min. The supernatant was discarded, 100 μL of gradient diluted antibody (with a starting concentration of 1800 nM, 3-fold dilution, 10 gradients) was added to each well, and incubated at 4° C. for 60 min. 50 μL/well Alexa Fluro647 labeled goat anti-human IgG Fc (1:300 dilution) were added to the secondary antibody, incubated on ice for 20 min, added with 50 μL/well PI solution (1:300) after washing once, incubated for 5 min, and flow cytometer was used to make detection.

[5] = target: T1, human CD3 on T cells (Jurkat cells; …); test: flow cytometry on Jurkat cells; remark: listed apart in the source
Experimental: The cells were adjusted to 5×10^5 cells/mL with 4% calf serum, 100 μL/well was added to 96-well U-plate, 300 g was centrifuged to removed the supernatant, 100 μL/well of gradient diluted antibody (initial concentration: 1800 nM, 3-fold dilution, 10 gradients) was added and incubated at 4° C. for 60 min. 50 μL/well Alexa Fluro647-labeled goat anti-human IgG Fc (1:300 dilution) was added to the secondary antibody and incubated on ice for 20 min. 50 μL/well PI was added after washing once, incubated for 5 min, and detected with flow cytometer (BD C6).

[6] = target: T1, human CD3 on T cells (Jurkat cells; …); test: flow cytometry on peripheral blood CD4+ T-cells
Experimental: (§3) Fresh human or cynomolgus monkey peripheral blood was taken and PBMC was isolated by Ficoll. Paque Plus (GE, 17-1440-03). PBMC was adjusted to 5×10⁵ cells/mL with 4% calf serum (Hyclone, SH30626.06), 100 μL/well was added to a 96-well U-plate, the supernatant was centrifuged off and 100 μL of gradient diluted antibody (with starting concentration of 1800 nM, 3-fold dilution, 10 gradients) was added to each well and incubated for 60 min at 4° C. 50 μL/well Alexa Fluro647 labeled goat anti-human IgG Fc (1:300 dilution) was added to secondary antibody, with ice bath for 20 min. 50 μL/well PI was added after washing once and incubated for 5 min, and flow cytometer (BD Celesta) is used to make detection.

[7] = target: T1, human CD3 on T cells (Jurkat cells; …); test: flow cytometry on peripheral blood CD8+ T-cells
Experimental: as §3

[8] = target: T4, human GPC3 on cells (CHO-human GPC3 …); test: flow cytometry on CHO-human GPC3 stably transfected cells
Experimental: as §2

[9] = target: T5, cynomolgus monkey GPC3 on CHO stably transfected cells (cynomolgus monkey, UniProt A0A2K5VK50 24-553); test: flow cytometry on CHO-cynomolgus monkey GPC3 stably transfected cells
T5 construct: whole, on cells; also called Cynomolgus monkey GPC3-CHO; CHO-Cynomolgus monkey GPC3
Experimental: as §2

B1: aCD3-hVH9/VL2 (antibody, human IgG4, V domains shown)
VH: EVQLVESGGGLVQPGGSLRLSCAASGFTFNTYAMNWVRKAPGKGLEWVGRIRSKYNNYATYYADSVKDRFTISRDDSKNSLYLQMNSLKTEDTAVYYCVRHGNFGNSYVSWFAYWGQGTLVTVSS
VL: QAVVTQEPSLTVSPGGTVTLTCRSSTGAVTTSNYANWVQEKPGQAPRGLIGGTNKRAPWTPARFSGSLLGGKAALTLSGAQPEDEAEYYCALWYSNLWVFGGGTKLTVL
notes: also called humanized anti-CD3 antibody hVH9/VL2
[1]
  affinity (FACS): 25 nM
[2]
  binding result: binds
[3]
  affinity (ELISA): 0.44 nM

B2: aCD3-hVH9/VL5 (antibody, human IgG4, V domains shown)
VH: B1 VH
VL: B1 VL with L77I, S78T, P82A, A91V
notes: also called humanized anti-CD3 antibody hVH9/VL5
[1]
  affinity (FACS): 20 nM
[2]
  binding result: binds
[3]
  affinity (ELISA): 0.42 nM

B3: GPC3 × CD3 κλ002 (bispecific antibody, human IgG4 S228P, kappa, lambda)
light 1: DVVMTQSPLSLPVTPGEPASISCRSSQSIVHSNGNTYLEWYLKKPGQSPQLLIYKVSNRFSGVPDRFSGSGSGTDFTLKISRVEAEDVGVYFCLQVTHVPLTFGQGTKLEIKRTVAAPSVFIFPPSDEQLKSGTASVVCLLNNFYPREAKVQWKVDNALQSGNSQESVTEQDSKDSTYSLSSTLTLSKADYEKHKVYACEVTHQGLSSPVTKSFNRGEC
heavy 1: QVQLVQSGAEVKKPGSSVKVSCKASGYTFADYEIHWVREAPGQGLEWMGAIHPGSGGTAYAQKFQGRVTLTADESSTTAYMELSSLRSEDTAVYYCTRYYSFAYWGQGTLVTVSSASTKGPSVFPLAPCSRSTSESTAALGCLVKDYFPEPVTVSWNSGALTSGVHTFPAVLQSSGLYSLSSVVTVPSSSLGTKTYTCNVDHKPSNTKVDKRVESKYGPPCPPCPAPEFEGGPSVFLFPPKPKDTLMISRTPEVTCVVVDVSQEDPEVQFNWYVDGVEVHNAKTKPREEQFNSTYRVVSVLTVLHQDWLNGKEYKCKVSNKGLASSIEKTISKAKGQPREPQVCTLPPSQEEMTKNQVSLSCAVKGFYPSDIAVEWESNGQPENNYKTTPPVLDSDGSFFLVSKLTVDKSRWQEGNVFSCSVMHEALHNHYTQKSLSLSLGK
light 2: QAVVTQEPSLTVSPGGTVTLTCRSSTGAVTTSNYANWVQEKPGQAPRGLIGGTNKRAPWTPARFSGSLLGGKAALTITGAQAEDEAEYYCVLWYSNLWVFGGGTKLTVLGQPKAAPSVTLFPPSSEELQANKATLVCLISDFYPGAVTVAWKADSSPVKAGVETTTPSKQSNNKYAASSYLSLTPEQWKSHRSYSCQVTHEGSTVEKTVAPTECS
heavy 2: EVQLVESGGGLVQPGGSLRLSCAASGFTFNTYAMNWVRKAPGKGLEWVGRIRSKYNNYATYYADSVKDRFTISRDDSKNSLYLQMNSLKTEDTAVYYCVRHGNFGNSYVSWFAYWGQGTLVTVSSASTKGPSVFPLAPCSRSTSESTAALGCLVKDYFPEPVTVSWNSGALTSGVHTFPAVLQSSGLYSLSSVVTVPSSSLGTKTYTCNVDHKPSNTKVDKRVESKYGPPCPPCPAPEFEGGPSVFLFPPKPKDTLMISRTPEVTCVVVDVSQEDPEVQFNWYVDGVEVHNAKTKPREEQFNSTYRVVSVLTVLHQDWLNGKEYKCKVSNKGLASSIEKTISKAKGQPREPQVYTLPPCQEEMTKNQVSLWCLVKGFYPSDIAVEWESNGQPENNYKTTPPVLDSDGSFFLYSKLTVDKSRWQEGNVFSCSVMHEALHNHYTQKSLSLSLGK
notes: also called GPC3×CD3 κλ bispecific antibody
[4]
  EC50: 2.1 nM
[5]
  EC50: 36 nM
[6]
  EC50: 65 nM
[7]
  EC50: 65 nM
[8]
  EC50: 2.8 nM
[9]
  EC50: 3 nM

B4: GPC3 × CD3 κλ003 (bispecific antibody, human IgG4 S228P, kappa, lambda)
light 1: B3 light 1 with E128K, Q129K
heavy 1: B3 heavy 1 with K145E, K211E
light 2: B3 light 2
heavy 2: B3 heavy 2
notes: Human IgG4 knob-into-hole Fc with Ser228Pro, Leu235Glu, Pro329Ala; also called GPC3×CD3 κλ bispecific antibody
[4]
  EC50: 2.5 nM
[5]
  EC50: 26 nM
[6]
  EC50: 56 nM
[7]
  EC50: 69 nM
[8]
  EC50: 2.9 nM
[9]
  EC50: 3 nM

From US20250346685A1 (published 2025)
